Test results published in patent publication US20160185850A1 (ESBATECH AN ALCON BIOMEDICAL RESEARCH UNIT, published 2016).
Substitutions are numbered along the chain they refer to. Where two headings read alike, the source gives them in different places. One block for each binder: values may come before it.

How the values were obtained:
recombinant human TNFα [1] = biological target: T1, recombinant human TNFα (human, UniProt P01375 77-233); test: cell-based or functional assay
recombinant human TNFα [2] = biological target: T1, recombinant human TNFα; test: cell-based or functional assay; remark: listed apart in the source
recombinant human TNFα [3] = biological target: T1, recombinant human TNFα; test: cell-based or functional assay; remark: listed apart in the source
recombinant human TNFα [4] = biological target: T1, recombinant human TNFα; test: ELISA dilution series on TNFα after 3 days at 37°C in pig vitreous body fluid (column 'vitreous body fluid')
recombinant human TNFα [5] = biological target: T1, recombinant human TNFα; test: ELISA dilution series on TNFα after 3 days at 37°C in human urine (column 'urine')
recombinant human TNFα [6] = biological target: T1, recombinant human TNFα; test: ELISA dilution series on TNFα after 3 days at 37°C in assay buffer TBSTM (positive control)
recombinant human TNFα [7] = biological target: T1, recombinant human TNFα; test: ELISA dilution series on TNFα after 3 days at 37°C in pig anterior chamber fluid (column 'anterior chamber fluid')
recombinant human TNFα [8] = biological target: T1, recombinant human TNFα; test: cell-based or functional assay; remark: listed apart in the source
recombinant human TNFα [9] = biological target: T1, recombinant human TNFα; test: surface plasmon resonance (BIACore)
recombinant human TNFα [10] = biological target: T1, recombinant human TNFα; test: ELISA dilution series on TNFα after 3 days at 37°C in human serum (column 'serum')
recombinant human TNFα [11] = biological target: T1, recombinant human TNFα; test: ELISA on recombinant human TNFα
recombinant human TNFα [12] = biological target: T1, recombinant human TNFα; test: ELISA on recombinant human TNFα; remark: listed apart in the source

T1 sequence (P01375 77-233 limits assumed): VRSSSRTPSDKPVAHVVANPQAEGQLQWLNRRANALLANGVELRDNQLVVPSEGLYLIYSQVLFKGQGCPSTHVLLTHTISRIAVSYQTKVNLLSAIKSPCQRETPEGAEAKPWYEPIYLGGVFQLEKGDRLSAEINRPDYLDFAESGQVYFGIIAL

EC50 (read off the curve) (recombinant human TNFα [11]): ~700 nM
B4: TB-BA (scFv)
scFv (VL of TB-B - (GGGGS)4 linker - VH of TB-A): DIVLTQSPSSLSASVGDRVTLTCTASQSVSNDVVWYQQRPGKAPKRLIYSAFNRYTGVPSRFSGSGSGTEFTLTISSLQPEDVAVYYCQQDYNSPRTFGQGTKLEVKRGGGGSGGGGSGGGGSGGGGSQVQLVQSGAEVKKPGASVKVSCTASGYTFTHYGMNWVRQAPGKGLEWMGWINTYTGEPTYADKFKDRFTFSLETSASTVYMELTSLTSDDTAVYYCARERGDAMDYWGQGTLVTVSS
notes: Domain-shuffled variant: VL domain of TB-B with VH domain of TB-A

EC50 (read off the curve) (recombinant human TNFα [11]): ~3 nM
B5: TB-AB (scFv)
scFv (VL of TB-A - (GGGGS)4 linker - VH of TB-B): DIVMTQSPSSLSASVGDRVTLTCTASQSVSNDVVWYQQRPGKAPKLLIYSAFNRYTGVPSRFSGRGYGTDFTLTISSLQPEDVAVYYCQQDYNSPRTFGQGTKLEVKRGGGGSGGGGSGGGGSGGGGSQVQLVQSGAEVKKPGASVKVSCTASGYSFTHYGMNWVRQAPGQGLEWMGWINTYTGEPTYADKFKDRVTLTRDTSIGTVYMELTSLTSDDTAVYYCARERGDAMDYWGQGTLVTVSS
notes: Domain-shuffled variant: VL domain of TB-A with VH domain of TB-B

binding result (recombinant human TNFα [12]): binds
B6: TB-A L_R65S (scFv)
scFv: B4 scFv (VL of TB-B - (GGGGS)4 linker - VH of TB-A) with L4M, R46L, S67Y, E70D
notes: also called TB-A L65

The remaining lines, values behind:

B1: TB-A Fab antibody (Fab, V domains shown)
VH: QVQLVQSGAEVKKPGASVKVSCTASGYTFTHYGMNWVRQAPGKGLEWMGWINTYTGEPTYADKFKDRFTFSLETSASTVYMELTSLTSDDTAVYYCARERGDAMDYWGQGTLVTVSS
VL: DIVMTQSPSSLSASVGDRVTLTCTASQSVSNDVVWYQQRPGKAPKLLIYSAFNRYTGVPSRFSGRGYGTDFTLTISSLQPEDVAVYYCQQDYNSPRTFGQGTKLEVKR
IC50 in the L929 assay, Fab format relative to scFv format of TB-A (recombinant human TNFα [1]): ~2 fold (IC50 Fab / IC50 scFv)
IC50, inhibition of human TNFα-induced cytotoxicity in mouse L929 fibroblasts (recombinant human TNFα [2]): 65.9 ng/mL

B2: TB-wt (scFv)
scFv: DIVMTQTPKFLLVSAGDRVTITCTASQSVSNDVVWYQQKPGQSPKMLMYSAFNRYTGVPDRFTGRGYGTDFTFTISSVQAEDLAVYFCQQDYNSPRTFGGGTKLEIKRGGGGSGGGGSGGGGSGGGGSQIQLVQSGPELKKPGETVKISCKASGYTFTHYGMNWVKQAPGKGLKWMGWINTYTGEPTYADDFKEHFAFSLETSASTVFLQINNLKNEDTATYFCARERGDAMDYWGQGTSVTVSS
IC50, inhibition of human TNFα-induced cytotoxicity in mouse L929 fibroblasts (recombinant human TNFα [3]): 161 ng/mL

B3: TB-A (scFv)
scFv: B4 scFv (VL of TB-B - (GGGGS)4 linker - VH of TB-A) with L4M, R46L, S65R, S67Y, E70D
notes: also called TB-A scFv; TB-A scFv antibody
Kd (recombinant human TNFα [4]): 3.18 nM
Kd (recombinant human TNFα [5]): 4.14 nM
Kd (recombinant human TNFα [6]): 3.39 nM
Kd (recombinant human TNFα [7]): 2.97 nM
Relative potency: EC50X/EC50TB-A, KYM-1 cells (recombinant human TNFα [8]): 1 ratio EC50X/EC50TB-A
Relative potency: EC50X/EC50TB-A, L929 cells (recombinant human TNFα [8]): 1 ratio EC50X/EC50TB-A
IC50, inhibition of human TNFα-induced cytotoxicity in mouse L929 fibroblasts (recombinant human TNFα [3]): 14.4 ng/mL
IC50, inhibition of human TNFα-induced cytotoxicity in mouse L929 fibroblasts (recombinant human TNFα [2]): 29.7 ng/mL
Kd (recombinant human TNFα [9]): 0.8 nM
koff (recombinant human TNFα [9]): 0.00044 s⁻¹
kon (recombinant human TNFα [9]): 500000 M⁻¹ s⁻¹
Kd (recombinant human TNFα [10]): 3.62 nM
EC50 (read off the curve) (recombinant human TNFα [11]): ~3 nM
